According to paper PMC4939597, “Mechanism for insulin-like peptide 5 distinguishing the homologous relaxin family peptide receptor 3 and 4” (Scientific Reports, 2016):
No end group written: not given here.

Experiments:
[1] = molecular target: T1, human RXFP3 (Homo sapiens, UniProt Q9NSD7); test: Receptor activation assay, CRE-controlled NanoLuc reporter; format: cell-based
T1 construct: expressed in transfected cells; host or cells: HEK293T
T1 sequence (Q9NSD7 1-469): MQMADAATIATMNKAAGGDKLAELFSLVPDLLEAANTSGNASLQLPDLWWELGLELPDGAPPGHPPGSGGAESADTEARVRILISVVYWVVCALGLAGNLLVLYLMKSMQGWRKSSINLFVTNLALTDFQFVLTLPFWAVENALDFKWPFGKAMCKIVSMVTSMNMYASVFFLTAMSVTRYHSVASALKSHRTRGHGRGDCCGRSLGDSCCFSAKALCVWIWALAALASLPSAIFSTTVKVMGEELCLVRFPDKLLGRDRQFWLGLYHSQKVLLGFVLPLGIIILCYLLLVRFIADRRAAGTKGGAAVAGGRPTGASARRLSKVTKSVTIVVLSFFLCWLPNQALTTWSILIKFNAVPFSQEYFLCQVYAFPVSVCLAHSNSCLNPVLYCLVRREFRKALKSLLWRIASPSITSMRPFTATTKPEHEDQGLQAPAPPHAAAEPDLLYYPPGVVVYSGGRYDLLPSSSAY
Method: (§1) Figure 4 Receptor activation activities of the mature INSL5 and R3/I5 mutants towards RXFP3 and RXFP4. HEK293T cells transiently cotransfected by human RXFP3 or human RXFP4 and a CRE-controlled NanoLuc reporter were used for the activation assays. The measured data were expressed as mean ± SE (n = 3) and fitted to sigmoidal or linear curves using the software SigmaPlot 10.0.
(§2) The receptor activation assays of the mature INSL5 and R3/I5 mutants were carried out using a cAMP-response element (CRE)-controlled NanoLuc reporter according to our previous procedure. Briefly, HEK293T cells were transiently cotransfected with the expression construct of human RXFP3 or human RXFP4 and the CRE-controlled NanoLuc reporter vector pNL1.2/CRE. Next day, the transfected cells were trypsinised, seeded into a 96-well plate, and continuously cultured for 24–36 h to ~90% confluence. To start activation assay, the medium was removed and the activation solution (serum-free DMEM medium plus 1% bovine serum albumin) containing 1.0 μM of forskolin and varied concentrations of peptide was added (100 μl/well). After being continuously cultured at 37 °C for 4 h, the activation solution was removed and the cells were lysed by lysis solution (100 μl/well, from Promega). The cell lysate was then transferred to a white opaque 96-well plate (50 μl/well), mixed with the freshly diluted substrate (50 μl/well), and bioluminescence was immediately measured on a SpectraMax M5 plate reader (Molecular Devices) using the luminescence mode. The measured bioluminescence data were expressed as mean ± SE (n = 3) and fitted to sigmoidal or linear curves using the SigmaPlot10.0 software.

[2] = molecular target: T2, human RXFP4 (Homo sapiens, UniProt Q8TDU9); test: Receptor binding assay, competition with NanoLuc-conjugated R3/I5 tracer; conditions: for pIC50 RXFP4: HEK293T cells transiently overexpressing human RXFP4, 0.5 nM NanoLuc-conjugated R3/I5 tracer, 21 °C, 2 h, mean ± SE, n = 3, SEM
T2 construct: expressed in transfected cells; host or cells: HEK293T
Method: (§3) Figure 3 Receptor binding activities of the mature INSL5 and R3/I5 mutants towards RXFP3 and RXFP4. A NanoLuc-conjugated R3/I5 peptide was used as tracer and HEK293T cells transiently overexpressing human RXFP3 or human RXFP4 were used as receptor source. The tracer concentration used in these assays was 0.5 nM. The nonspecific binding was obtained by competition with 1.0 μM of relaxin-3. The measured data were expressed as mean ± SE (n = 3) and fitted to sigmoidal curves using the software SigmaPlot 10.0.
(§4) The receptor binding assays of the mature INSL5 and R3/I5 mutants were carried out using a NanoLuc-conjugated R3/I5 peptide as tracer and the human embryonic kidney (HEK) 293T cells transiently overexpressing human RXFP3 or human RXFP4 as receptor source. Nonspecific binding was obtained by competition with 1.0 μM of human relaxin-3. Briefly, HEK293T cells were transiently transfected with the expression construct of human RXFP3 or human RXFP4. Next day, the transfected cells were trypsinised, seeded into a 96-well plate, and continuously cultured for 24–36 h to confluence. To start binding assay, the medium was removed and the binding solution (serum-free DMEM medium plus 1% bovine serum albumin) containing 0.5 nM of the NanoLuc-conjugated R3/I5 tracer and varied concentrations of competitor was added (100 μl/well). After incubation at 21 °C for 2 h, the binding solution was removed and the cells were washed twice by ice-cold phosphate-buffered saline (200 μl/well for each wash). Thereafter, the cells were lysed by lysis solution (100 μl/well, from Promega, Madison, WI, USA) and the cell lysate was transferred to a white opaque 96-well plate (50 μl/well). After mixing with the freshly diluted substrate (50 μl/well), bioluminescence was immediately measured on a SpectraMax M5 plate reader (Molecular Devices, Sunnyvale, CA, USA) using the luminescence mode. The measured bioluminescence data were expressed as mean ± SE (n = 3) and fitted to sigmoidal curves using the SigmaPlot10.0 software.

[3] = molecular target: T1, human RXFP3; test: as above; conditions: HEK293T cells transiently overexpressing human RXFP3; 0.5 nM NanoLuc-conjugated R3/I5 tracer; 21 °C, 2 h; mean ± SE, n = 3; SEM
Method: as §3, §4

[4] = molecular target: T2, human RXFP4; test: Receptor activation assay, CRE-controlled NanoLuc reporter; format: cell-based; conditions: HEK293T cells cotransfected with human RXFP4 and CRE-controlled NanoLuc reporter; 1.0 μM forskolin; 37 °C, 4 h; mean ± SE, n = 3; SEM
Method: as §1, §2

T2 sequence (Q8TDU9 whole entry): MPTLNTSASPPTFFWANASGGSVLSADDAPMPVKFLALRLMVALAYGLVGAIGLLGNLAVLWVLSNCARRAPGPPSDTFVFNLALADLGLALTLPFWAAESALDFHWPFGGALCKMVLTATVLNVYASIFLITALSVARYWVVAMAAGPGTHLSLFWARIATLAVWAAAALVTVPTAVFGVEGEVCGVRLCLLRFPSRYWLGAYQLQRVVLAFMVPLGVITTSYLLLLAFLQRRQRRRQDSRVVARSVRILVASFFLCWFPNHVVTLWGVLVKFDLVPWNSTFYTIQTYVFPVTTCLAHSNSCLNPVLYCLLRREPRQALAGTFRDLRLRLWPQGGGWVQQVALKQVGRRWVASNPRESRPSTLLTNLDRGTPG

| Compound | pIC50 RXFP3 [3] | pIC50 RXFP4 [2] | pEC50 RXFP4 [4] | also measured |
| --- | --- | --- | --- | --- |
| CC[C@H](C)[C@@H]1NC(=O)[C@H](Cc2ccccc2)NC(=O)[C@H]([C@@H](C)CC)NC(=O)[C@H](C(C)C)NC(=O)[C@H]([C@@H](C)O)NC(=O)[C@H](CCCNC(=N)N)NC(=O)[C@H]([C@@H](C)CC)NC(=O)[C@H](Cc2ccc(O)cc2)NC(=O)[C@H](CCC(=O)O)NC(=O)[C@H](CCCNC(=N)N)NC(=O)CNC(=O)[C@@H](NC(=O)[C@H](CC(C)C)NC(=O)[C@H](CCCNC(=N)N)NC(=O)[C@@H](NC(=O)[C@H](CO)NC(=O)[C@H](Cc2ccc(O)cc2)NC(=O)[C@@H](N)CCCCN)C(C)C)CSSC[C@@H]2NC(=O)[C@@H](NC(=O)[C@H](CC(C)C)NC(=O)[C@@H](NC(=O)[C@H](CCC(N)=O)NC(=O)[C@H](CC(C)C)NC(=O)[C@H](CC(=O)O)NC(=O)[C@@H](N)CCC(N)=O)[C@@H](C)O)CSSC[C@H](NC(=O)CNC(=O)[C@H](CC(=O)O)NC(=O)[C@H]([C@@H](C)O)NC2=O)C(=O)N[C@@H](CO)C(=O)N[C@@H](CCSC)C(=O)N[C@@H]([C@@H](C)O)C(=O)N[C@@H](CC(=O)O)C(=O)N[C@@H](CC(C)C)C(=O)N[C@@H](CO)C(=O)N[C@@H](C)C(=O)N[C@@H](CC(C)C)C(=O)N[C@H](C(=O)O)CSSC[C@@H](C(=O)NCC(=O)NCC(=O)N[C@@H](CO)C(=O)N[C@@H](CCCNC(=N)N)C(=O)N[C@@H](Cc2c[nH]c3ccccc23)C(=O)O)NC1=O |  |  |  | fold higher activation potency towards RXFP3 than its parent mutant ([1]; higher than the 4-mutation INSL5): ~ 5 fold; fold lower activation potency towards RXFP3 than relaxin-3 ([1]; lower than relaxin-3): ~ 20 fold |
| CC[C@H](C)[C@@H]1NC(=O)[C@H](Cc2ccc(O)cc2)NC(=O)[C@H]([C@@H](C)CC)NC(=O)[C@H](C(C)C)NC(=O)[C@H]([C@@H](C)O)NC(=O)[C@H](CCCNC(=N)N)NC(=O)[C@H]([C@@H](C)CC)NC(=O)[C@H](Cc2ccc(O)cc2)NC(=O)[C@H](CCC(=O)O)NC(=O)[C@H](CCCNC(=N)N)NC(=O)CNC(=O)[C@@H](NC(=O)[C@H](CC(C)C)NC(=O)[C@H](CCCNC(=N)N)NC(=O)[C@@H](NC(=O)[C@H](CO)NC(=O)[C@H](CCC(=O)O)NC(=O)[C@@H](N)CCCCN)C(C)C)CSSC[C@@H]2NC(=O)[C@@H](NC(=O)[C@H](CC(C)C)NC(=O)[C@@H](NC(=O)[C@H](CCC(N)=O)NC(=O)[C@H](CC(C)C)NC(=O)[C@H](CC(=O)O)NC(=O)[C@@H](N)CCC(N)=O)[C@@H](C)O)CSSC[C@H](NC(=O)CNC(=O)[C@H](CC(=O)O)NC(=O)[C@H]([C@@H](C)O)NC2=O)C(=O)N[C@@H](CO)C(=O)N[C@@H](CCSC)C(=O)N[C@@H]([C@@H](C)O)C(=O)N[C@@H](CC(=O)O)C(=O)N[C@@H](CC(C)C)C(=O)N[C@@H](CO)C(=O)N[C@@H](C)C(=O)N[C@@H](CC(C)C)C(=O)N[C@H](C(=O)O)CSSC[C@@H](C(=O)NCC(=O)NCC(=O)N[C@@H](CO)C(=O)N[C@@H](CCCNC(=N)N)C(=O)N[C@@H](Cc2c[nH]c3ccccc23)C(=O)O)NC1=O [[L(B9)R,A(B20)G,S(B21)G]INSL5] |  |  |  | fold lower binding potency towards RXFP4 compared with wild-type INSL5 ([2]; lower than wild-type INSL5): ~ 6 fold |
| [F(B20)Y,G(B23)A,G(B24)S]R3/I5: recombinant mature two-chain R3/I5 mutant (chain 1 RAAPYGVRLCGREFIRAVIYTCASSRW; chain 2 QDLQTLCCTDGCSMTDLSALC; disulfide (positions not given here); not fully specified; also: A-chain N-terminal pyroglutamate likely) | 8.45 ± 0.04 | 7.91 ± 0.02 | 9.02 ± 0.05 |  |
| [G(B23)A,G(B24)S]R3/I5: recombinant mature two-chain R3/I5 mutant (chain 1 RAAPYGVRLCGREFIRAVIFTCASSRW; chain 2 QDLQTLCCTDGCSMTDLSALC; disulfide (positions not given here); not fully specified; also: A-chain N-terminal pyroglutamate likely) | 8.61 ± 0.03 | 8.06 ± 0.04 |  |  |
| [G(B23)A,G(B24)S]R3/I5: recombinant mature two-chain R3/I5 mutant (chain 1 RAAPYGVRLCGREFIRAVIFTCASSRW; chain 2 QDLQTLCCTDGCSMTDLSALC; not fully specified; two-chain, three disulfides; A-chain N-terminal pyroglutamate likely; possible unprinted extra residues as in m2) |  |  | 8.44 ± 0.04 |  |
| [R(B12)L,F(B20)Y,G(B23)A,G(B24)S]R3/I5: recombinant mature two-chain R3/I5 mutant (chain 1 RAAPYGVRLCGLEFIRAVIYTCASSRW; chain 2 QDLQTLCCTDGCSMTDLSALC; disulfide (positions not given here); not fully specified; also: A-chain N-terminal pyroglutamate likely) | 8.40 ± 0.04 | 7.75 ± 0.05 |  |  |
| [R(B12)L,F(B20)Y,G(B23)A,G(B24)S]R3/I5: recombinant mature two-chain R3/I5 mutant (chain 1 RAAPYGVRLCGLEFIRAVIYTCASSRW; chain 2 QDLQTLCCTDGCSMTDLSALC; not fully specified; two-chain, three disulfides; A-chain N-terminal pyroglutamate likely; possible unprinted extra residues as in m2) |  |  | 8.71 ± 0.06 |  |
| [R(B12)L,G(B23)A,G(B24)S]R3/I5: recombinant mature two-chain R3/I5 mutant (chain 1 RAAPYGVRLCGLEFIRAVIFTCASSRW; chain 2 QDLQTLCCTDGCSMTDLSALC; disulfide (positions not given here); not fully specified; also: A-chain N-terminal pyroglutamate likely) | 8.38 ± 0.03 | 7.83 ± 0.04 | 8.16 ± 0.04 |  |
| [Y(B5)E,R(B12)L,F(B20)Y,G(B23)A,G(B24)S]R3/I5: recombinant mature two-chain R3/I5 mutant (chain 1 RAAPEGVRLCGLEFIRAVIYTCASSRW; chain 2 QDLQTLCCTDGCSMTDLSALC; disulfide (positions not given here); not fully specified; also: A-chain N-terminal pyroglutamate likely) | 8.11 ± 0.02 | 7.61 ± 0.05 | 8.24 ± 0.05 |  |
